In patent US20140275487A1 (VIB VZW, published 2014):

B1: Nanobody 41 (CA4441) (VHH)
VHH: QVQLQESGGGLVQSGGSLRLSCVASGFRFSNFPMMWVRQAPGKGLEWVSLISIGGSTTNYADSVKGRFTISRDNAKNTLFLQMNSLKPEDTAVYYCAKYLGRLVPPTTEGQGTQVTVSS
notes: Tested as periplasmic extract in ELISA; also called Nb41
B2: Nanobody 36 (CA4436) (VHH)
VHH: QVQLQESGGGSVQAGGSLRLSCTVSGTIFSVTVMGWYRQAPGKQRELVAGFTNTRNTNYVDSVKGRFTISKDSAKNTMYLQMNSLKPEDTAVYYCNVRRWGGTNWNDYWGQGTQVTVSS
notes: also called Nb36
B3: Nanobody 33 (CA4433) (VHH)
VHH: QVQLQESGGGLVQPGGSLRLSCAASGFTFSNYVMNWVRQAPGKGLEWVSDISNGGGTTSYASSVKGRFTISRDNAKNTLYLQMNGLKPADTAVYYCARCPAPFTNDCMDITSTTYAYRGQGTQVTVSS
notes: Tested as periplasmic extract in ELISA; also called Nb33
B4: Nanobody 35 (CA4435) (VHH)
VHH: QVQLQESGGGLVQPGGSLRLSCAASGFTFSNYKMNWVRQAPGKGLEWVSDISQSGASISYTGSVKGRFTISRDNAKNTLYLQMNSLKPEDTAVYYCARCPAPFTRDCFDVTSTTYAYRGQGTQVTVSS
notes: Llama VHH raised against the BS2G cross-linked β2AR:Gs:BI167107 complex; expressed in E. coli periplasm; also called Nb35; NB35
B5: Nanobody 37 (CA4437) (VHH)
VHH: QVQLQESGGGFVQAGGSLRLSCAASGSIFSKNTMAWFRQAPGKERELVAASPTGGSTAYKDSVKGRFTISRDSAKNTVLLQMNVLKPEDTAVYYCHLRQNNRGSWFHYWGQGTQVTVSS
notes: also called Nb37
B6: Nanobody 40 (CA4440) (VHH)
VHH: QVQLQESGGGLVQAGGSLRLSCAVSGTIFDITPMGWYRQTPGKQREVVADLTSRGTTNYADSVKGRFTISRDNAKKMLYLQMNSLKSDDTGVYYCNVKRWGGIGWNDYWGQGTQVTVSS
notes: Tested as periplasmic extract in ELISA; also called Nb40

These binders were tested against T1, agonist-bound β2AR-356 reconstituted at high density into phospholipid vesicles (UniProt P07550 1-365) (assay: ELISA on purified receptor alone).
T1 construct: Solid phase coated on Maxisorb plates for ELISA; also called purified receptor alone; reconstituted receptor alone

Binding result, no binding:
B1
B2
B3
B4
B5
B6
